# Measurements taken from patent US20100260668A1 (published 2010).
# B1: DVD468 (bispecific antibody, IgG1)
# VH: EVQLVESGGGLVQPGGSLRLSCAASGFTINASWIHWVRQAPGKGLEWVGAIYPYSGYTNYADSVKGRFTISADTSKNTAYLQMNSLRAEDTAVYYCARWGHSTSPWAMDYWGQGTLVTVSSASTKGPEVQLVESGGGLVQPGGSLRLSCAASGFTFTDNWISWVRQAPGKGLEWVGYISPNSGFTYYADSVKGRFTISADTSKNTAYLQMNSLRAEDTAVYYCARDNFGGYFDYWGQGTLVTVSS
# VL: DIQMTQSPSSLSASVGDRVTITCRASQVIRRSLAWYQQKPGKAPKLLIYAASNLASGVPSRFSGSGSGTDFTLTISSLQPEDFATYYCQQSNTSPLTFGQGTKVEIKRTVAAPDIQMTQSPSSLSASVGDRVTITCRASQDVSTAVAWYQQKPGKAPKLLIYSASFLYSGVPSRFSGSGSGTDFTLTISSLQPEDFATTYYCQQSYTGTVTFGQGTKVEIKR
# notes: DVD-Ig, outer AB071 / inner AB015; HC linker short, LC linker short; also called DVD468H; DVD468L
# B2: DVD480 (bispecific antibody, IgG1)
# VH: EVQLVESGGGLVQPGGSLRLSCAASGFTINASWIHWVRQAPGKGLEWVGAIYPYSGYTNYADSVKGRFTISADTSKNTAYLQMNSLRAEDTAVYYCARWGHSTSPWAMDYWGQGTLVTVSSASTKGPSVFPLAPEVQLVESGGGLVQPGGSLRLSCAASGFTFTDNWISWVRQAPGKGLEWVGYISPNSGFTYYADSVKGRFTISADTSKNTAYLQMNSLRAEDTAVYYCARDNFGGYFDYWGQGTLVTVSS
# VL: DIQMTQSPSSLSASVGDRVTITCRASQVIRRSLAWYQQKPGKAPKLLIYAASNLASGVPSRFSGSGSGTDFTLTISSLQPEDFATYYCQQSNTSPLTFGQGTKVEIKRTVAAPDIQMTQSPSSLSASVGDRVTITCRASQDVSTAVAWYQQKPGKAPKLLIYSASFLYSGVPSRFSGSGSGTDFTLTISSLQPEDFATTYYCQQSYTGTVTFGQGTKVEIKR
# notes: DVD-Ig, outer AB071 / inner AB015; HC linker long, LC linker short; also called DVD480H; DVD480L
# B3: DVD486 (bispecific antibody, IgG1)
# VH: EVQLVESGGGLVQPGGSLRLSCAASGFTINASWIHWVRQAPGKGLEWVGAIYPYSGYTNYADSVKGRFTISADTSKNTAYLQMNSLRAEDTAVYYCARWGHSTSPWAMDYWGQGTLVTVSSASTKGPEVQLVESGGGLVQPGGSLRLSCAASGFTFTDNWISWVRQAPGKGLEWVGYISPNSGFTYYADSVKGRFTISADTSKNTAYLQMNSLRAEDTAVYYCARDNFGGYFDYWGQGTLVTVSS
# VL: DIQMTQSPSSLSASVGDRVTITCRASQVIRRSLAWYQQKPGKAPKLLIYAASNLASGVPSRFSGSGSGTDFTLTISSLQPEDFATYYCQQSNTSPLTFGQGTKVEIKRTVAAPSVFIFPPDIQMTQSPSSLSASVGDRVTITCRASQDVSTAVAWYQQKPGKAPKLLIYSASFLYSGVPSRFSGSGSGTDFTLTISSLQPEDFATTYYCQQSYTGTVTFGQGTKVEIKR
# notes: DVD-Ig, outer AB071 / inner AB015; HC linker short, LC linker long; also called DVD486H; DVD486L
# B4: DVD473 (bispecific antibody, IgG1)
# VH: EVQLVESGGGLVQPGGSLRLSCAASGFTFTDNWISWVRQAPGKGLEWVGYISPNSGFTYYADSVKGRFTISADTSKNTAYLQMNSLRAEDTAVYYCARDNFGGYFDYWGQGTLVTVSSASTKGPSVFPLAPEVQLVESGGGLVQPGGSLRLSCAASGFTINASWIHWVRQAPGKGLEWVGAIYPYSGYTNYADSVKGRFTISADTSKNTAYLQMNSLRAEDTAVYYCARWGHSTSPWAMDYWGQGTLVTVSS
# VL: DIQMTQSPSSLSASVGDRVTITCRASQDVSTAVAWYQQKPGKAPKLLIYSASFLYSGVPSRFSGSGSGTDFTLTISSLQPEDFATTYYCQQSYTGTVTFGQGTKVEIKRTVAAPSVFIFPPDIQMTQSPSSLSASVGDRVTITCRASQVIRRSLAWYQQKPGKAPKLLIYAASNLASGVPSRFSGSGSGTDFTLTISSLQPEDFATYYCQQSNTSPLTFGQGTKVEIKR
# notes: DVD-Ig, outer AB015 / inner AB071; HC linker long, LC linker long; also called DVD473H; DVD473L
# B5: DVD472 (bispecific antibody, IgG1)
# VH: EVQLVESGGGLVQPGGSLRLSCAASGFTISDYWIHWVRQAPGKGLEWVAGITPAGGYTYYADSVKGRFTISADTSKNTAYLQMNSLRAEDTAVYYCARFVFFLPYAMDYWGQGTLVTVSSASTKGPSVFPLAPEVQLVESGGGLVQPGGSLRLSCAASGFTFTDNWISWVRQAPGKGLEWVGYISPNSGFTYYADSVKGRFTISADTSKNTAYLQMNSLRAEDTAVYYCARDNFGGYFDYWGQGTLVTVSS
# VL: DIQMTQSPSSLSASVGDRVTITCRASQDVSTAVAWYQQKPGKAPKLLIYSASFLYSGVPSRFSGSGSGTDFTLTISSLQPEDFATYYCQQSYTTPPTFGQGTKVEIKRTVAAPSVFIFPPDIQMTQSPSSLSASVGDRVTITCRASQDVSTAVAWYQQKPGKAPKLLIYSASFLYSGVPSRFSGSGSGTDFTLTISSLQPEDFATTYYCQQSYTGTVTFGQGTKVEIKR
# notes: HC linker long, LC linker long; also called DVD472H; DVD472L
# B6: DVD471 (bispecific antibody, IgG1)
# VH: EVQLVESGGGLVQPGGSLRLSCAASGFTFTDNWISWVRQAPGKGLEWVGYISPNSGFTYYADSVKGRFTISADTSKNTAYLQMNSLRAEDTAVYYCARDNFGGYFDYWGQGTLVTVSSASTKGPSVFPLAPEVQLVESGGGLVQPGGSLRLSCAASGFTISDYWIHWVRQAPGKGLEWVAGITPAGGYTYYADSVKGRFTISADTSKNTAYLQMNSLRAEDTAVYYCARFVFFLPYAMDYWGQGTLVTVSS
# VL: DIQMTQSPSSLSASVGDRVTITCRASQDVSTAVAWYQQKPGKAPKLLIYSASFLYSGVPSRFSGSGSGTDFTLTISSLQPEDFATTYYCQQSYTGTVTFGQGTKVEIKRTVAAPSVFIFPPDIQMTQSPSSLSASVGDRVTITCRASQDVSTAVAWYQQKPGKAPKLLIYSASFLYSGVPSRFSGSGSGTDFTLTISSLQPEDFATYYCQQSYTTPPTFGQGTKVEIKR
# notes: HC linker long, LC linker long; also called DVD471H; DVD471L
# B7: DVD466 (bispecific antibody, IgG1)
# VH: EVQLVESGGGLVQPGGSLRLSCAASGFTISDYWIHWVRQAPGKGLEWVAGITPAGGYTYYADSVKGRFTISADTSKNTAYLQMNSLRAEDTAVYYCARFVFFLPYAMDYWGQGTLVTVSSASTKGPEVQLVESGGGLVQPGGSLRLSCAASGFTFTDNWISWVRQAPGKGLEWVGYISPNSGFTYYADSVKGRFTISADTSKNTAYLQMNSLRAEDTAVYYCARDNFGGYFDYWGQGTLVTVSS
# VL: DIQMTQSPSSLSASVGDRVTITCRASQDVSTAVAWYQQKPGKAPKLLIYSASFLYSGVPSRFSGSGSGTDFTLTISSLQPEDFATYYCQQSYTTPPTFGQGTKVEIKRTVAAPDIQMTQSPSSLSASVGDRVTITCRASQDVSTAVAWYQQKPGKAPKLLIYSASFLYSGVPSRFSGSGSGTDFTLTISSLQPEDFATTYYCQQSYTGTVTFGQGTKVEIKR
# notes: HC linker short, LC linker short; also called DVD466H; DVD466L
# B8: DVD465 (bispecific antibody, IgG1)
# VH: EVQLVESGGGLVQPGGSLRLSCAASGFTFTDNWISWVRQAPGKGLEWVGYISPNSGFTYYADSVKGRFTISADTSKNTAYLQMNSLRAEDTAVYYCARDNFGGYFDYWGQGTLVTVSSASTKGPEVQLVESGGGLVQPGGSLRLSCAASGFTISDYWIHWVRQAPGKGLEWVAGITPAGGYTYYADSVKGRFTISADTSKNTAYLQMNSLRAEDTAVYYCARFVFFLPYAMDYWGQGTLVTVSS
# VL: DIQMTQSPSSLSASVGDRVTITCRASQDVSTAVAWYQQKPGKAPKLLIYSASFLYSGVPSRFSGSGSGTDFTLTISSLQPEDFATTYYCQQSYTGTVTFGQGTKVEIKRTVAAPDIQMTQSPSSLSASVGDRVTITCRASQDVSTAVAWYQQKPGKAPKLLIYSASFLYSGVPSRFSGSGSGTDFTLTISSLQPEDFATYYCQQSYTTPPTFGQGTKVEIKR
# notes: HC linker short, LC linker short; also called DVD465H; DVD465L
# B9: DVD474 (bispecific antibody, IgG1)
# VH: EVQLVESGGGLVQPGGSLRLSCAASGFTINASWIHWVRQAPGKGLEWVGAIYPYSGYTNYADSVKGRFTISADTSKNTAYLQMNSLRAEDTAVYYCARWGHSTSPWAMDYWGQGTLVTVSSASTKGPSVFPLAPEVQLVESGGGLVQPGGSLRLSCAASGFTFTDNWISWVRQAPGKGLEWVGYISPNSGFTYYADSVKGRFTISADTSKNTAYLQMNSLRAEDTAVYYCARDNFGGYFDYWGQGTLVTVSS
# VL: DIQMTQSPSSLSASVGDRVTITCRASQVIRRSLAWYQQKPGKAPKLLIYAASNLASGVPSRFSGSGSGTDFTLTISSLQPEDFATYYCQQSNTSPLTFGQGTKVEIKRTVAAPSVFIFPPDIQMTQSPSSLSASVGDRVTITCRASQDVSTAVAWYQQKPGKAPKLLIYSASFLYSGVPSRFSGSGSGTDFTLTISSLQPEDFATTYYCQQSYTGTVTFGQGTKVEIKR
# notes: DVD-Ig, outer AB071 / inner AB015; HC linker long, LC linker long; also called DVD474H; DVD474L
# B10: DVD467 (bispecific antibody, IgG1)
# VH: EVQLVESGGGLVQPGGSLRLSCAASGFTFTDNWISWVRQAPGKGLEWVGYISPNSGFTYYADSVKGRFTISADTSKNTAYLQMNSLRAEDTAVYYCARDNFGGYFDYWGQGTLVTVSSASTKGPEVQLVESGGGLVQPGGSLRLSCAASGFTINASWIHWVRQAPGKGLEWVGAIYPYSGYTNYADSVKGRFTISADTSKNTAYLQMNSLRAEDTAVYYCARWGHSTSPWAMDYWGQGTLVTVSS
# VL: DIQMTQSPSSLSASVGDRVTITCRASQDVSTAVAWYQQKPGKAPKLLIYSASFLYSGVPSRFSGSGSGTDFTLTISSLQPEDFATTYYCQQSYTGTVTFGQGTKVEIKRTVAAPDIQMTQSPSSLSASVGDRVTITCRASQVIRRSLAWYQQKPGKAPKLLIYAASNLASGVPSRFSGSGSGTDFTLTISSLQPEDFATYYCQQSNTSPLTFGQGTKVEIKR
# notes: DVD-Ig, outer AB015 / inner AB071; HC linker short, LC linker short; also called DVD467H; DVD467L
# B11: DVD485 (bispecific antibody, IgG1)
# VH: EVQLVESGGGLVQPGGSLRLSCAASGFTFTDNWISWVRQAPGKGLEWVGYISPNSGFTYYADSVKGRFTISADTSKNTAYLQMNSLRAEDTAVYYCARDNFGGYFDYWGQGTLVTVSSASTKGPEVQLVESGGGLVQPGGSLRLSCAASGFTINASWIHWVRQAPGKGLEWVGAIYPYSGYTNYADSVKGRFTISADTSKNTAYLQMNSLRAEDTAVYYCARWGHSTSPWAMDYWGQGTLVTVSS
# VL: DIQMTQSPSSLSASVGDRVTITCRASQDVSTAVAWYQQKPGKAPKLLIYSASFLYSGVPSRFSGSGSGTDFTLTISSLQPEDFATTYYCQQSYTGTVTFGQGTKVEIKRTVAAPSVFIFPPDIQMTQSPSSLSASVGDRVTITCRASQVIRRSLAWYQQKPGKAPKLLIYAASNLASGVPSRFSGSGSGTDFTLTISSLQPEDFATYYCQQSNTSPLTFGQGTKVEIKR
# notes: DVD-Ig, outer AB015 / inner AB071; HC linker short, LC linker long; also called DVD485H; DVD485L
# B12: DVD479 (bispecific antibody, IgG1)
# VH: EVQLVESGGGLVQPGGSLRLSCAASGFTFTDNWISWVRQAPGKGLEWVGYISPNSGFTYYADSVKGRFTISADTSKNTAYLQMNSLRAEDTAVYYCARDNFGGYFDYWGQGTLVTVSSASTKGPSVFPLAPEVQLVESGGGLVQPGGSLRLSCAASGFTINASWIHWVRQAPGKGLEWVGAIYPYSGYTNYADSVKGRFTISADTSKNTAYLQMNSLRAEDTAVYYCARWGHSTSPWAMDYWGQGTLVTVSS
# VL: DIQMTQSPSSLSASVGDRVTITCRASQDVSTAVAWYQQKPGKAPKLLIYSASFLYSGVPSRFSGSGSGTDFTLTISSLQPEDFATTYYCQQSYTGTVTFGQGTKVEIKRTVAAPDIQMTQSPSSLSASVGDRVTITCRASQVIRRSLAWYQQKPGKAPKLLIYAASNLASGVPSRFSGSGSGTDFTLTISSLQPEDFATYYCQQSNTSPLTFGQGTKVEIKR
# notes: DVD-Ig, outer AB015 / inner AB071; HC linker long, LC linker short; also called DVD479H; DVD479L
# Biological target: VEGF (VEGF 1-165 aa, R&D Systems 293-VE-010) (UniProt P15692 27-191)
# Test: Direct bind ELISA, VEGF coated on plate;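 further: ELISA screening of antibodies for binding to the plate-coated target antigen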
# Method: Enzyme Linked Immunosorbent Assays to screen for antibodies that bind a desired target antigen were performed as follows. […] Plates were washed four times with PBS containing 0.02% Tween 20. Plates were blocked by the addition of 300 μL/well blocking solution (non-fat dry milk powder, various retail suppliers, diluted to 2% in PBS) for ½ hour at room temperature. Plates were washed four times after blocking with PBS containing 0.02% Tween 20.
# Plates were washed 4 times with PBS containing 0.02% Tween 20.
# Sequence of VEGF (VEGF 1-165 aa, R&D Systems 293-VE-010) (P15692 other isoform, or with tags, fused parts or gaps limits assumed): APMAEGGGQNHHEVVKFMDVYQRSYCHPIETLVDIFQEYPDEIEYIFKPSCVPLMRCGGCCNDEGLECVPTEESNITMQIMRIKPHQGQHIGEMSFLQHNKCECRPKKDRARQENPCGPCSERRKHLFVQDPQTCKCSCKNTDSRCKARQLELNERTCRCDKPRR
row,EC50,Binder
1,25.6 nM,B1
2,23 nM,B2
3,28 nM,B3
4,388 nM,B4
5,9.22 nM,B5
6,30.1 nM,B6
7,2.61 nM,B7
8,396 nM,B8
9,17.9 nM,B9
10,1810 nM,B10
11,121 nM,B11
12,456 nM,B12
